The text below walks through data of paper PMC4596688, “Structural determinants of nuclear export signal orientation in binding to exportin CRM1” (eLife, 2015).

pKd: −log10 of the molar value.

The term pKd denotes −log10 of the Kd, conventionally taken in molar units.

Sequence of Full-length human CRM1 (HsCRM1) (O14980 whole entry): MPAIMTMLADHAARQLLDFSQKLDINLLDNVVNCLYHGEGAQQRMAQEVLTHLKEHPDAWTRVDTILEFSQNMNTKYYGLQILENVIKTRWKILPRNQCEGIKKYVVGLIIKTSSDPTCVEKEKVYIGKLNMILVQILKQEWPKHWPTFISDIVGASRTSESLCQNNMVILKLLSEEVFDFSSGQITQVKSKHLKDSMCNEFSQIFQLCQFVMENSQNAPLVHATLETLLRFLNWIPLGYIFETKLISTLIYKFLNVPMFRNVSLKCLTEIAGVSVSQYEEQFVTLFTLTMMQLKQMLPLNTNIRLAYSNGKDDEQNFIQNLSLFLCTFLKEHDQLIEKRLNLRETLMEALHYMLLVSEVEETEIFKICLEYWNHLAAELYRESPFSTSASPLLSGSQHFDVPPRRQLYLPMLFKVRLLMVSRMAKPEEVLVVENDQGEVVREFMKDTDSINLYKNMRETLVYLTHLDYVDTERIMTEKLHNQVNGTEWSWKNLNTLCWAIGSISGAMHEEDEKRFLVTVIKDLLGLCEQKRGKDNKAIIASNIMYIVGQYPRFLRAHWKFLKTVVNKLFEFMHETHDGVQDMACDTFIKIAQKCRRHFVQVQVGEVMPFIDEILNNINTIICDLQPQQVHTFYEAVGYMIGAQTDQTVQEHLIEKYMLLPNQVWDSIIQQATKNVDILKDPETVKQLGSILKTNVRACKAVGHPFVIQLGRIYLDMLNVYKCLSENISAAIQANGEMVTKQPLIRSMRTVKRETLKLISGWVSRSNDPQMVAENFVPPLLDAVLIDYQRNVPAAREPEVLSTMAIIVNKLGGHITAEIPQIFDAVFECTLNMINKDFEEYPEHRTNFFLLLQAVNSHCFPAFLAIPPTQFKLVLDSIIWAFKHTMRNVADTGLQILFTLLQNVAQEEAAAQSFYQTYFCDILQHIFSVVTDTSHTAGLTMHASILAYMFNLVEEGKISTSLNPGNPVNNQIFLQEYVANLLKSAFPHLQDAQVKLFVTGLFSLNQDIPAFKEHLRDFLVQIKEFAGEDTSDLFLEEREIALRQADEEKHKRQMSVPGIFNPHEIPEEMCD

One test has as its target Full-length human CRM1 (HsCRM1) (UniProt O14980). The test can be described thus: GST pull-down, SDS/PAGE band intensity. The note with it: excess ScRanGTP; triplicate experiments; parent: est. 100; read off a plot.
For GST-hRio2NES-R F13A, the percent of parent amounted to 17%.

As for GST-hRio2NES-R F13M, the percent of parent was found to be 110%.

As for GST-hRio2NES-R F13P, the percent of parent was found to be 33%.

For GST-hRio2NES-R F13W, the percent of parent worked out at 31%.

Regarding GST-hRio2NES-R F13Y, the percent of parent was found to be 17%.

As to GST-hRio2NES-R M11A, the percent of parent was determined as 17%.

GST-hRio2NES-R M11F: the percent of parent came to 53%.

On to GST-hRio2NES-R M11I, for which the percent of parent amounted to 57%.

GST-hRio2NES-R M11P: the percent of parent was determined as 15%.

For the substance GST-hRio2NES-R M11V, the percent of parent was determined as 17%.

As for GST-hRio2NES-R M11W, the percent of parent came to 80%.

As for GST-hRio2NES-R M11Y, the percent of parent is 10%.

The next test has the same target. The test can be described thus: competition differential bleaching monitored with a microscale thermophoresis instrument; MBP-NESs serially diluted from 100 μM to 3 nM with 40 nM FITC-PKI^NES, mixed 1:1 with 300 nM HsCRM1 and 120 μM ScRan-GTP; TB buffer with 15% glycerol, 0.05% Tween-20; 1.5 hr, room temperature.
Settings: not given
Background: In MST a laser heats a spot of the sample, and binding alters the fluorescence response.
For the substance MBP-CPEB4^NES (peptide), the pKd is 6.23.

As for MBP-CPEB4^NES-R (peptide), the pKd is 6.11.

Consider MBP-hRio2^NES (peptide), for which the pKd was 5.66.

As for MBP-hRio2^NES-R (peptide), the pKd was 5.62.
